US20240270874A1 (JIANGSU HENGRUI PHARMACEUTICALS, published 2024)

T1: cynomolgus monkey KLB on CHOK1-cynoKLB cells (cynomolgus monkey, UniProt A0A2K5WB58 1-1044)
T1 construct: whole, on cells; also called monkey KLB antigen
T1 sequence: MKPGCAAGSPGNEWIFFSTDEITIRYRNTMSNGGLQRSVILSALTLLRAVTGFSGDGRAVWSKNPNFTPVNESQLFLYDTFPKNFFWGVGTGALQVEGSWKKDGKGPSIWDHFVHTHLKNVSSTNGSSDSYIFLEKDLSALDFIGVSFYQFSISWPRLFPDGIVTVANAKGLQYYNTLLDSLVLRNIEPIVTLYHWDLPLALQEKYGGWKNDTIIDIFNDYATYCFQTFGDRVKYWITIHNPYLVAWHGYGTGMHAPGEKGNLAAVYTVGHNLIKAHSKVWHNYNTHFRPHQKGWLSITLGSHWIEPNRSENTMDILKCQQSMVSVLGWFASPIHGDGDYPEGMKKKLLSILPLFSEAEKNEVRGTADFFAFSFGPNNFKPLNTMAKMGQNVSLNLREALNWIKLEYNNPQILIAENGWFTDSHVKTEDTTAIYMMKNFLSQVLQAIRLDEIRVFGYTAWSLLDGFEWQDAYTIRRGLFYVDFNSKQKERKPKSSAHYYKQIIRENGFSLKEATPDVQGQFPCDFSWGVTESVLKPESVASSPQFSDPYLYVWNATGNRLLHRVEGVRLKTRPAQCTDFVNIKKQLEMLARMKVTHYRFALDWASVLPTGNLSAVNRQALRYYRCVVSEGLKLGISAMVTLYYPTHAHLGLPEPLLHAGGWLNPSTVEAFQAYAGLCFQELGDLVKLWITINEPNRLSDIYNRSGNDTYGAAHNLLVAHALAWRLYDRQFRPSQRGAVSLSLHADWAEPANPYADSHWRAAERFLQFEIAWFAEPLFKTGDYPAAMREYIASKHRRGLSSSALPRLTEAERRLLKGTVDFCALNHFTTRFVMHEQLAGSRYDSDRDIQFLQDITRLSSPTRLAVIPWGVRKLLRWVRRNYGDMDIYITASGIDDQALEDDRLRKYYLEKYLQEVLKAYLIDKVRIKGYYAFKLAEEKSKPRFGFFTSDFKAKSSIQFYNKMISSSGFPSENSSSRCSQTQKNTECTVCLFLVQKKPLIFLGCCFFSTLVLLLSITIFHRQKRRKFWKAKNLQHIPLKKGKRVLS

T2: hKLB (R&D, Cat. # 5889-KB) (human, UniProt Q86Z14 53-997, limits assumed)
T2 construct: bought soluble protein; also called KLB protein; human KLB
T2 sequence (looked up): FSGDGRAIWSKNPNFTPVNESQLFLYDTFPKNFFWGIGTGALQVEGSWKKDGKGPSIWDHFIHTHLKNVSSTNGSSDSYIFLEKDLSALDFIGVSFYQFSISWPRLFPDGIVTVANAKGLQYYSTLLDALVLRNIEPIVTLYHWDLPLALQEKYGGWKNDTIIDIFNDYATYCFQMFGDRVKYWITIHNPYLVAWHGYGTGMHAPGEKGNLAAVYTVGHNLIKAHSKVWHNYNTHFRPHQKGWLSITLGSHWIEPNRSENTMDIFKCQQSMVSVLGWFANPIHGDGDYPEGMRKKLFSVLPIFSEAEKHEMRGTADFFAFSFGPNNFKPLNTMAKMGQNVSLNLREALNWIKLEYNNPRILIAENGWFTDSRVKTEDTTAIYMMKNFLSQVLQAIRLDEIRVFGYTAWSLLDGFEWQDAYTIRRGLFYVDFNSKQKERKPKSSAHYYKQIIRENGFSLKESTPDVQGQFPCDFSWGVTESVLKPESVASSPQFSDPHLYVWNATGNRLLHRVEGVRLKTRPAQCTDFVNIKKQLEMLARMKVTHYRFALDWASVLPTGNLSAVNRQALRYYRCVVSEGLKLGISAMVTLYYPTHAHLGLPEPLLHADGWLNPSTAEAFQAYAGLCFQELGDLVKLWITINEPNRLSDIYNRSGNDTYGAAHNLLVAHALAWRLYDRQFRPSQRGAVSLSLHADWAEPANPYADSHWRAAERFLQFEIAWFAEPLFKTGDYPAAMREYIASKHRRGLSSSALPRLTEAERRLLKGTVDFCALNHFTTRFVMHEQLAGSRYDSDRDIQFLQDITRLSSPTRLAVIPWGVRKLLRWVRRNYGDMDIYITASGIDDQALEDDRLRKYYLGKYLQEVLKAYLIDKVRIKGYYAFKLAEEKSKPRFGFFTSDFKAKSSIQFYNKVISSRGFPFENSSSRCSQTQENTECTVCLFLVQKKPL

B1: hAb99-13 (antibody, human IgG1, kappa, L234A L235A, V domains shown)
VH: EVQLVQSGAEVKKPGASVKVSCKASGYTFTNYGINWVRQAPGQRLEWMGYIYIGNVDIEYNAKFKGRVTITSDTSASTAYMELSSLRSEDTAVYYCARGRGLGHFDVWGQGTTVTVSS
VL: DIQMTQSPSSLSASVGDRVTITCRASKSISKFLAWFQQKPGKTNKLLIYSGSTLQSGVPSRFSGSGSGTDFTLTISSLQPEDFATYYCQQHNEYPWTFGGGTKVEIKR
notes: human IgG1 (L234A, L235A) / kappa
B2: hAb-23 (antibody, human IgG1, kappa, L234A L235A, V domains shown)
VH: QVQLVQSGAEVKKPGSSVKVSCKASGGTFSSYAISWVRQAPGQGLEWMGGIIPIFGTANYAQKFQGRVTITADESTSTAYMELSSLRSEDTAVYYCARELVSYYYGMDVWGQGTMVTVSS
VL: not shown
notes: from a human natural phage library; human IgG1 (L234A, L235A) / kappa; also called fully human antibody hAb-23
B3: hAb18-8 (antibody, human IgG1, kappa, L234A L235A, V domains shown)
VH: EVQLVQSGAEVKKPGASVKVSCKASGYTFTDYAMHWVRQAPGQRLEWMGVISTYSGTTNYNQNFKGRVTITVDKSASTAYMELSSLRSEDTAVYYCARSGPLDYWGQGTTVTVSS
VL: ENVLTQSPDFQSVTPKEKVTITCRATSSVSSSYLHWYQQKPDQSPKLWIYSTSQLASGVPSRFSGSGSGTDYTLTINSLEAEDAATYYCQQYSGYPLTFGQGTKLEIKR
notes: as for B1

These binders were tested against human FGFR1c on cells (human, UniProt P11362 22-822) (assay: cell-based or functional assay).
human FGFR1c on cells, sequence (P11362 22-822): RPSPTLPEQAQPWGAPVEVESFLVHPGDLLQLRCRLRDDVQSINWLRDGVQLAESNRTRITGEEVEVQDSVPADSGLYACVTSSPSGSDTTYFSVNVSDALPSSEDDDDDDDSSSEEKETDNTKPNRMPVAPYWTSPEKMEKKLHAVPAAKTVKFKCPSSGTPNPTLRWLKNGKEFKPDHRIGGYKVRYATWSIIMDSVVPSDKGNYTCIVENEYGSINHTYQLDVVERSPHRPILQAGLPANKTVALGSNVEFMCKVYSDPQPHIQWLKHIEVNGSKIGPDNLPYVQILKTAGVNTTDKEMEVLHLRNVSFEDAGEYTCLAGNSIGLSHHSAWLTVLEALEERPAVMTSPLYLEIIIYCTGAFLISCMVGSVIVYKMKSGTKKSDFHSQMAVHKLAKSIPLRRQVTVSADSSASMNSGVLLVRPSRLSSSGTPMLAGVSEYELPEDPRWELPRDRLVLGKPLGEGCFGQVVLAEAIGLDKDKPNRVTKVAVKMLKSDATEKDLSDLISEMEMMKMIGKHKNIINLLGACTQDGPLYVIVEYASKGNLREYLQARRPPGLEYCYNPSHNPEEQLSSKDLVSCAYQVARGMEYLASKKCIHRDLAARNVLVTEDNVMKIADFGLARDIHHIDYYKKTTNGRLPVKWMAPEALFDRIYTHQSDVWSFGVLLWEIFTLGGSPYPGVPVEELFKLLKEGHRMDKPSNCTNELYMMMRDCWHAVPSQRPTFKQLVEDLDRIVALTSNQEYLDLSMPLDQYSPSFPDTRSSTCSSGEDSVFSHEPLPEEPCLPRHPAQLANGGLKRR

Binder	Activation fold, SRE-Luc2P reporter in HEK293-hFGFR1c cells
B1	0.77 fold
B2	0.86 fold
B3	0.81 fold

These binders were tested against T1, cynomolgus monkey KLB on CHOK1-cynoKLB … (assay: flow cytometry on CHOK1-cynoKLB cells).
Protocol: The binding ability of the antibodies for CHOK1 cell strains CHOK1-hKLB and CHOK1-cynoKLB overexpressing human KLB and monkey KLB (see Example 1 for specific preparation procedure), respectively, was detected by flow cytometry. The specific procedure was as follows: the above cells were cultured in 10% FBS-containing IMDM medium and incubated in an incubator at 37° C. and 5% CO₂ for 2 days. The cells were then added to a cell plate at 1×10⁵ cells per well, centrifuged at 300 g for 5 min, and then washed once with 1% BSA. The antibody diluted in gradient was added to the cell plate at 100 μL per well, and the mixture was incubated at 4° C. for 1 h and washed once with 1% BSA. The diluted (1:400) APC-goat anti-human IgG Fc fluorescent secondary antibody was added at 100 μL per well, and the resulting mixture was incubated at 4° C. for 1 h. The plate was washed three times with 1% BSA, PBS was added at 100 μL per well, and the plate was read.

Binder	EC50
B1	270 pM
B2	130 pM
B3	1900 pM

These binders were tested against T2, hKLB (R&D, Cat. # 5889-KB) (assay: BLI (Octet HTX) competition; KLB+antibody premix on SA sensor; competitor: immobilised Bio-FGF19).
Protocol: Bio-FGF21/Bio-FGF19 (obtained by subjecting FGF21 and FGF19 to Biotin labeling with a Biotin Labeling Kit-NH2 (available from DOJINDO Molecular technologies Inc., LK03), wherein FGF21 is set forth in SEQ ID NO: 76 and FGF19 is set forth in SEQ ID NO: 77) was immobilized to an SA sensor (incubation for 80 s) at a concentration of 2 μg/mL, and the sensor was then transferred to a sample well containing KLB (R&D, 5889-KB-1 mg) or containing KLB+antibody premix (pre-incubation for at least 15 min) for 180 s of binding. The reaction signals were detected in real time using the ForteBio OCTET HTX instrument to obtain a binding curve.

Binder	binding signal of KLB to Bio-FGF19, % of KLB alone
B1	99%
B2	99%
B3	101%
